Measurements reported in patent publication US20200062856A1 (XDCEXPLORER SHANGHAI, published 2020).
Changes are numbered by the printed parent chain.

T1: human TPBG antigen immobilized on a CM5 chip (human, UniProt Q13641 32-355, limits assumed)
T1 sequence (looked up): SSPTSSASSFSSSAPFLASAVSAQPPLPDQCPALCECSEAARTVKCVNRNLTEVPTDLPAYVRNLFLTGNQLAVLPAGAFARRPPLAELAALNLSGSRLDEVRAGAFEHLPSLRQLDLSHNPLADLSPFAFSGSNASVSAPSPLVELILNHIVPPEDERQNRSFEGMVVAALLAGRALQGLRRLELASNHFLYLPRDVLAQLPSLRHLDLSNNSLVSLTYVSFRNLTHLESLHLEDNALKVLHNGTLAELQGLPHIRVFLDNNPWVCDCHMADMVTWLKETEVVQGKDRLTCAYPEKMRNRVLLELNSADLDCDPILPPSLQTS

T2: human TPBG-hFc protein (human, UniProt Q13641 32-355)
T2 construct: range 32-355; Expressed in HEK293 cells, purified on protein A; also called immunogen A; hFc tagged TPBG protein; not shown: human IgG Fc fragment of the pCpC vector
T2 sequence (looked up): T1 sequence (looked up)

T3: human TPBG protein, full-length, on the cell surface (human, UniProt Q13641 32-420)
T3 sequence (looked up): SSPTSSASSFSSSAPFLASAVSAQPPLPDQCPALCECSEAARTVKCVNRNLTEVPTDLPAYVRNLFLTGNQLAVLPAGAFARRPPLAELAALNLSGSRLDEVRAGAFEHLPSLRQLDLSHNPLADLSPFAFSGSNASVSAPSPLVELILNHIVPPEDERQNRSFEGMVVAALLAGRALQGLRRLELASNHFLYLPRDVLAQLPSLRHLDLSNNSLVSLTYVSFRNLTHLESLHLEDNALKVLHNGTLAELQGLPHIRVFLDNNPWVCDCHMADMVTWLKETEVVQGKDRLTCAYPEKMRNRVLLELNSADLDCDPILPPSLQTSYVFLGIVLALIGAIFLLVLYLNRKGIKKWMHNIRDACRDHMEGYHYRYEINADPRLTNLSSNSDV

T4: cynomolgus TPBG protein, full-length, on the cell surface (cynomolgus, UniProt Q4R8Y9 35-420)
T4 construct: whole, on cells; also called cTPBG; CHOk1-cTPBG
T4 sequence (looked up): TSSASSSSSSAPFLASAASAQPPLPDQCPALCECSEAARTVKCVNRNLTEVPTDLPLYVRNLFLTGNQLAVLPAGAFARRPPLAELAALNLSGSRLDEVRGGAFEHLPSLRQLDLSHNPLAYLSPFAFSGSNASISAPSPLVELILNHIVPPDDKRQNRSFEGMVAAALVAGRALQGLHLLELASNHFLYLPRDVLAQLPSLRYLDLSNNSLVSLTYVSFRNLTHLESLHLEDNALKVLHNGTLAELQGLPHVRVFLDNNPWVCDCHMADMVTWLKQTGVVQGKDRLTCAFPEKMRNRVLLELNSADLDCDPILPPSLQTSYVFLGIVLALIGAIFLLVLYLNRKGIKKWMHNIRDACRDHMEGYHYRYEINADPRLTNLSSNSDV

T5: mouse TPBG protein, full-length, on the cell surface (mouse, UniProt Q9Z0L0 32-426)
T5 construct: whole, on cells; also called mTPBG; CHOk1-mTPBG
T5 sequence (looked up): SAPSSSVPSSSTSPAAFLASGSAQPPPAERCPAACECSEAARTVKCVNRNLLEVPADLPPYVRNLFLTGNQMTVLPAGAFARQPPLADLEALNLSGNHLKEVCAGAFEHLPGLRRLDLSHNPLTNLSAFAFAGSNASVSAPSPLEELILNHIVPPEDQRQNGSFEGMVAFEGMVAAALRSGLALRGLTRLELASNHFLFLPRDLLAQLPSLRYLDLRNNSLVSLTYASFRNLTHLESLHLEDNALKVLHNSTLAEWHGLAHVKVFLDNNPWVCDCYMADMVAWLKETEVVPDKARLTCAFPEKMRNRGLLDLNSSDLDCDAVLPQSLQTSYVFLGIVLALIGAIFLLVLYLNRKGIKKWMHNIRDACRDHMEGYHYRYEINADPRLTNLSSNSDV

B1: Humanized antibody 28D4-3 (antibody, V domains shown)
VH: EVQLVESGGGLVKPGGSLRLSCAASGFTFSNYVMSWIRQAPGKGLEWVAEISTGGSHTYYSDTVTGRFTISRDNAKKSLYLQMNSLRAEDTAVYYCIMFYYGSSYSMDYWGQGTTVTVSS
VL: DIQMTQSPSSLSASVGDRVTITCRASQDIRNYLNWYQQKPGKAPKLLIYHTSRLHSGVPSRFSGSGSGTDFTFTISSLQPEDIATYYCQQGDTLPLTFGQGTRLEIK
notes: also called h28D4-3
B2: Humanized antibody 28D4-7 (antibody, V domains shown)
VH: B1 VH
VL: B1 VL with F71Y
notes: also called h28D4-7
B3: Humanized antibody 28D4-4 (antibody, V domains shown)
VH: B1 VH with I37A, G44R
VL: B1 VL
notes: also called h28D4-4
B4: Chimeric antibody 28D4 (antibody, V domains shown)
VH: DVQLVESGGGLVRPGGSLKLSCAASGFTFSNYVMSWARQSPEKRLEWVAEISTGGSHTYYSDTVTGRFTISRDNAKKALYLEMSSLRSEDTAIYYCIMFYYGSSYSMDYWGQGTSVTVSS
VL: DIQMTQSTSSLSASLGDRITISCRASQDIRNYLNWYQQKPDGTVKLLIYHTSRLHSGVPSRFSGSGSGTDYSLTISNLEQEDIATYFCQQGDTLPLTFGAGTRLELK
notes: Mouse variable domains on human IgG1 heavy and human kappa light constant regions; also called c28D4; TPBG chimeric antibody 28D4
B5: Chimeric Antibody 12B12-MMAF (antibody, V domains shown)
VH: DVQLVESGGGLVQPGGSRKLSCAASGFTFSNFGMHWVRQAPEKGLEWVAYISSGSTSFYYADTVKGRFTISRDNPKNTLFLQMTSLRSEDTAMYYCSRTNSLLRGFFDAWGAGTTVTVSS
VL: DIVLTQSPASLAVSLGQRATISCRASQSVSSSSYTYLHWYQQKPGQPPKLLIKSASNLESGVPARFSGTGSGTDFTLNIHPVEEEDTATYYCQHSWEIPLTFGAGTKLELK
modifications: MC-MMAF on cysteines reduced with TCEP (sites not given), DAR 3.0-5.0 per antibody
B6: Humanized Antibody 12B12-15-MMAF (antibody, V domains shown)
VH: EVQLVESGGGVVQPGRSLRLSCAASGFTFSNFGMHWVRQAPGKGLEWVAYISSGSTSFYYADTVKGRFTISRDNSKNTLYLQMNSLRAEDTAVYYCARTNSLLRGFFDAWGQGTTVTVSS
VL: DIVLTQTPLSLSVTPGQPASISCRASQSVSSSSYTYLHWYLQKPGQPPQLLIKSASNLESGVPDRFSGSGSGTDFTLKISRVEAEDVGVYYCQHSWEIPLTFGQGTKLEIK
modifications: MC-MMAF on cysteines reduced with TCEP (sites not given), DAR 3.0-5.0 per antibody
B7: Humanized Antibody 28D4-3-MMAF (antibody, V domains shown)
VH: B1 VH
VL: B1 VL
modifications: MC-MMAF on cysteines reduced with TCEP (sites not given), DAR 3.0-5.0 per antibody
B8: Humanized Antibody 28D4-4-MMAF (antibody, V domains shown)
VH: B1 VH with I37A, G44R
VL: B1 VL
modifications: MC-MMAF on cysteines reduced with TCEP (sites not given), DAR 3.0-5.0 per antibody
B9: Humanized Antibody 28D4-7-MMAF (antibody, V domains shown)
VH: B1 VH
VL: B1 VL with F71Y
modifications: MC-MMAF on cysteines reduced with TCEP (sites not given), DAR 3.0-5.0 per antibody
B10: Chimeric Antibody 28D4-MMAF (antibody, V domains shown)
VH: B4 VH
VL: B4 VL
modifications: MC-MMAF on cysteines reduced with TCEP (sites not given), DAR 3.0-5.0 per antibody
B11: Humanized Antibody 12B12-12-DM1 (antibody, V domains shown)
VH: B6 VH with V11L, R16G, A49S, S75A, T78S, A88D
VL: B6 VL
modifications: SMCC-DM1 (sites not given), DAR about 3.0-5.0 per antibody

These binders were tested against T1, human TPBG antigen immobilized on a CM5 … (assay: SPR (Biacore), human TPBG antigen immobilized on CM5 chip).
Procedure: To assess the binding specificity and affinity of the humanized anti-TPBG antibody, Biacore analysis was performed using human TPBG antigen immobilized on a CM5 chip. Biacore technique utilizes the change in the refractive index of surface layer after antibody binding to the TPBG antigen immobilized on the surface layer. The binding was determined by surface plasmon resonance (SPR) through detecting the laser refracted from the surface. Non-specific and specific interactions were distinguished by analysis of signal kinetics binding rate and dissociation rate. Chimeric antibodies 12B12 and 28D4 were used as controls.

Kd [nM] | koff [s⁻¹] | kon [M⁻¹ s⁻¹] | Binder
0.0406 | 4.57e-05 | 1.12e+06 | B1
0.0256 | 9.42e-05 | 3.68e+06 | B2
0.0231 | 3.58e-05 | 1.55e+06 | B3
0.013 | 3.24e-05 | 2.5e+06 | B4

The binders below were run against T2, human TPBG-hFc protein (assay: ELISA, coated human TPBG-hFc).
Procedure: The purified human TPBG-hFc obtained from step (1) diluting with PBS to a final concentration of 1.0 μg/mL was aliquoted into a 96-well ELISA plate at 100 μL per well, and sealed with a parafilm and incubated at 4° C. overnight. The plate was washed twice with plate washing buffer (PBS containing 0.01% (v/v) Tween 20), and blocked with blocking buffer (PBS containing 0.01% (v/v) Tween 20 and 1% (w/w) BSA) at room temperature for 2 h. The blocking buffer was discarded, and […] per well of the purified antibody TPBG was added. After incubating at 37° C. for 2 h, the plate was washed for three times with plate washing buffer (PBS containing 0.01% (v/v) Tween 20). HRP (horseradish peroxidase)-labeled secondary antibody (purchased from Sigma) was added and incubated at 37° C. for 2 h, and the plate was washed for three times using plate washing buffer (PBS containing 0.01% (v/v) Tween 20). 100 μL of TMB substrate was aliquoted into each well, incubated at room temperature for 30 min, and 100 μL of stop buffer (1.0 N HCl) per well was subsequently added. A_{450 nm} values were read using the ELISA plate reader (SpectraMax 384plus purchased from Molecular Device), and the results were shown in Table 5. […] In Table 5 the IgG control herein is a mice IgG control, the data in the Table are OD_{450 nm} values, and Blank represents the OD_{450 nm} value of PBS buffer in the plate.
The purified humanized TPBG antibody obtained from Embodiment 1 was reacted with human TPBG-hFc, for the method, see (5) Identification of lead antibody in Embodiment 1. The EC50 in Table 11 and Table 12 are calculated according to the OD450 nm value of the h12B12 variants and the h28D4 variants, respectively. […] FIGS. 7A and 7B are the binding reactions of purified humanized h12B12 variants to human TBPG-hFc protein, and FIGS. 8A and 8B are the binding reactions of the purified humanized h28D4 variants to human TBPG-hFc protein.

EC50 [nM] | Binder
0.16 | B1
0.161 | B2
0.147 | B3
0.165 | B4

The binders below were run against T3, human TPBG protein, full-length, on the … (assay: cell-based or functional assay).

Binder | IC50 of cell killing, NCI-H1568 cells (CellTiter-Glo, 5 days) [nM]
B5 | 0.063
B6 | 0.058

What follows are binders tested against T3, human TPBG protein, full-length, on the … (assay: FACS on CHOK1-hTPBG cells).

EC50 [nM] | Binder
0.26 | B1
0.37 | B2
0.38 | B3
0.33 | B4

What follows are binders tested against T4, cynomolgus TPBG protein, full-length, … (assay: FACS on CHOK1-cTPBG cells).

EC50 [nM] | Binder
0.62 | B1
0.27 | B2
0.72 | B3
0.94 | B4

Biological target: T3, human TPBG protein, full-length, on the …
Test: cell-based or functional assay
Remark: another data set of the same source

Binder | IC50 of cell killing, NCI-H1568 cells (CellTiter-Glo, 5 days) [nM]
B7 | 0.061
B8 | 0.074
B9 | 0.066
B10 | 0.091

Biological target: T3, human TPBG protein, full-length, on the …
Test: cell-based or functional assay
Remark: another data set of the same source

Binder | IC50 of cell killing, MDA-MB-468 cells (CellTiter-Glo, 5 days) [nM] | IC50 of cell killing, NCI-H1568 cells (CellTiter-Glo, 5 days) [nM] | IC50 of cell killing, NCI-H1975 cells (CellTiter-Glo, 5 days) [nM]
B11 | 0.44 | 0.38 | 5.93

What follows are binders tested against T5, mouse TPBG protein, full-length, on the … (assay: FACS on CHO-k1 cells with surface-expressed mouse TPBG, fluorescent secondary antibody, mean fluorescence intensity).

binding result | Binder
no binding (tested: 100 nM) | B1
no binding (tested: 100 nM) | B2
no binding (tested: 100 nM) | B3
no binding (tested: 100 nM) | B4
